Patent publication US20240400644A1 (ACROIMMUNE GUANGZHOU BIOTECH, published 2024)

T1: HMGB1-His tag protein (human, UniProt P09429 1-215, limits assumed)
T1 construct: Bought, HEK293 cell derived; also called human HMGB1; HMGB1-His protein; not shown: His tag
T1 sequence (looked up): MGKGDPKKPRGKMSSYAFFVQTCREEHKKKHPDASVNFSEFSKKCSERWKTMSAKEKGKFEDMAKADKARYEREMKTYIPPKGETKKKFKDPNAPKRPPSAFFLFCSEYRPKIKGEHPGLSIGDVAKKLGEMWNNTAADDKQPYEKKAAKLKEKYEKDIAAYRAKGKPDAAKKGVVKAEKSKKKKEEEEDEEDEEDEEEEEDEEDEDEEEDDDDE

T2: Siglec10-mIgG2aFc fusion protein (human, UniProt Q96LC7 17-546, limits assumed)
T2 construct: Bought, HEK293 cell derived; also called human Siglec-10; AcroBiosystems SIO-H525b; not shown: mouse IgG2a Fc of the bought protein
T2 sequence (looked up): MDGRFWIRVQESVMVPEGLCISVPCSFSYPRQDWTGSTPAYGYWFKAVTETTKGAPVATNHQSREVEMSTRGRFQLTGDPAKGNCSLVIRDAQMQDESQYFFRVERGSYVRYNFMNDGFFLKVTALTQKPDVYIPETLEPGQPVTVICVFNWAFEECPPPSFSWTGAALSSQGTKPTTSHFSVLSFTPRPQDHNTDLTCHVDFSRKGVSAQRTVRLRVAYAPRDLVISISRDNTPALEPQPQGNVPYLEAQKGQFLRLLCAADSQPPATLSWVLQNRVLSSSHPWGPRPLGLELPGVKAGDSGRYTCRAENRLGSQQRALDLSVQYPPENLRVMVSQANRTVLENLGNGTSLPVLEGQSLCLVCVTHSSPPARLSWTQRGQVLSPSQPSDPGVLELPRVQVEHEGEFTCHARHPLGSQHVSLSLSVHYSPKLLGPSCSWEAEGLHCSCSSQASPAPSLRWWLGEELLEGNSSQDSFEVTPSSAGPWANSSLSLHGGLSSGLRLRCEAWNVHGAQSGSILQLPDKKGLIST


Experiments:
[1] = target: CD24Fc (HEK293 cell derived) (UniProt P25063); test: direct ELISA, antigen coated at 10 µg/ml, mAb titrated
HMGB1-His tag protein = target: T1, HMGB1-His tag protein; test: ELISA, HMGB1-His coated at 0.1 µg/mL, fusion protein titrated
Experimental: 96-well plates were coated (100 μL per well) with 0.1 μg/mL HEK293 cell derived HMGB1-His tag protein (AcroBiosystems, HM1-H5220) at 4° C. overnight. After blocking with SuperBlock (Thermo, 37515) at room temperature for 1 hour, 100 μL of 2-fold serial dilutions of AI-071 or CD24Fc (all starting at 1.5 mg/mL, dilution buffer: PBST-1% BSA solution containing 1 mM MgCl2 and 1 mM CaCl2) were added. The bound AI-071 or CD24Fc protein was then detected by adding HRP-labeled goat anti-human IgG-Fc antibody (1:1000, Invitrogen, A18829), followed by the addition of tetramethylbenzidin (TMB) substrates. The EC50 values of the binding are shown in the underneath table. […] Recombinant HMGB1-His protein sample was incubated with AI-071, human IgG-Fc, or none for 5 min, the mixture was then incubated with protein A-conjugated beads to capture (or pull-down) the bound proteins. The captured proteins were then separated in a SDS-PAGE gel and visualized by Coomassie Brilliant Blue dye staining. […] As indicated on the top of each gel, lane 1 represents the sample containing HMGB1 only, lane 2 represents the sample containing HMGB1 and human IgG-Fc, and lane 3 represents the sample containing HMGB1 and AI-071, lane M is the protein molecule weight marker sample. […]

[2] = target: T2, Siglec10-mIgG2aFc fusion protein; test: ELISA, Siglec10-mIgG2aFc coated at 0.2 µg/mL, fusion protein titrated
Experimental: 96-well plates were coated (100 μL per well) with 0.2 μg/mL of HEK293 cell derived Siglec10-mlgG2aFc fusion protein (AcroBiosystems, SIO-H525b) at 4° C. overnight. After blocking with SuperBlock (Thermo, 37515) at room temperature for 1 hour, 100 μL of 2-fold serial dilutions of AI-071 or CD24Fc protein (all starting at 1.5 mg/mL) were added. The bound AI-071 or CD24Fc protein was then detected by HRP-labeled goat anti-human IgG-Fc antibody (1:5000, Invitrogen, A18829) followed by the addition of tetramethylbenzidine (TMB) substrates. The EC50 values of the binding are shown in the underneath table.
To probe the interaction of AI-071 protein with the members of Siglec family such as Siglec10, an ELSIA assay was developed. In-brief, 96-well plates were coated (100 μL per well) with 0.2 μg/mL of HEK293 cell derived Siglec10-mlgG2aFc fusion protein (AcroBiosystems, SIO-H525b) at 4° C. overnight. After washing and blocking with SuperBlock (Thermo, 37515) at room temperature for 1 hour, 100 μL of 2-fold serial dilutions of either AI-71 or CD24Fc (all starting at 1.5 mg/ml) were added. The bound AI-071 or CD24Fc protein was then detected by HRP-labeled goat anti-human IgG-Fc antibody (1:5000, Invitrogen, A18829) followed by the addition of Tetramethylbenzidin (TMB) substrates. […] The OD values at a wavelength of 450 nm (OD 450 nm) in each well were then measured.

EC50 [1] [nM]	EC50 (HMGB1-His tag protein) [nM]	EC50 [2] [nM]	Molecule
4.67	–	–	SN3 mouse anti-CD24 mAb (antibody)
–	51000	2850	SETTTGTSSNSSQSTSNSGLAPNPTNATTKAAG (Fc fusion, UniProt P25063 27-59, looked up, not shown: Fc part) [CD24Fc (producing cell not stated)]
